# Laboratory results published in publication PMC6128974.
# T1: DOF3.4-ZF (Arabidopsis thaliana, UniProt Q39088 22-81)
# T1 sequence: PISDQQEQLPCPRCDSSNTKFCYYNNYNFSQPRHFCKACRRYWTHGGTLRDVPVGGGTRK
# T2: DOF5.8-ZF (Arabidopsis thaliana, UniProt Q9FGD6 24-83)
# T2 sequence: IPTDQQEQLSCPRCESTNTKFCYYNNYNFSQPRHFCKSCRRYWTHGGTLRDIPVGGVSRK
# B1: Control for double-motif probe (dsDNA)
# DNA 1: AAATAATCATGCGATATTGCGAAATATATAAC
# DNA 2: GTTATATATTTCGCAATATCGCATGATTATTT
# B2: Control for single-motif probe (dsDNA)
# DNA 1: AATCCAGCGATGTAGAGGAG
# DNA 2: CTCCTCTACATCGCTGGATT
# B3: Double-motif probe, fluorescein (dsDNA)
# DNA 1: AAATAATCATAAAGTATTAAAGTAATATATAC
# DNA 2: GTATATATTACTTTAATACTTTATGATTATTT
# Experiments:
# [1] = molecular target: T1, DOF3.4-ZF; assay: EMSA
# [2] = molecular target: T2, DOF5.8-ZF; assay: EMSA
# [3] = molecular target: T1, DOF3.4-ZF; assay: MST
# [4] = molecular target: T2, DOF5.8-ZF; assay: MST
Binder,binding result [1],binding result [2],Kd [3],Kd [4]
B1,no binding,no binding,,
B2,no binding,no binding,,
B3,,,2300 ± 1000 nM,2500 ± 1000 nM
